Results from patent publication CN106928350A (TIANJIN INST IND BIOTECHNOLOGY CAS; SUZHOU GENEWIZ …, dated 2017).

Target: T1, HA of H3 (A/Aichi/2/1968)/PR8 H3N1 (PR8-RS) (Influenza A virus A/Aichi/2/1968 (H3), UniProt P03437 17-566)
T1 construct: whole, on cells; also called A/Aichi/2/1968 H3N1-RG
Assay: immunofluorescence on virus-infected MDCK cells, antibody 40μg/mL

B1: AF4H1K1 (antibody, V domains shown)
VH: QVQLVESGGGVVQPGTSLRLSCEASGFTSSAYAMHWVRQAPGKGLEWVAVITFDGGYQYYADSVKGRFTISRDISRNTLHLHMNSLRAEDTAVYYCARDPLTKLLPFDWVSGGYFDYWGQGTLVTVSS
VL: not shown
notes: also called AF4H1K1 IgG; AF4H1K1IgG
binding result: binds
